Substitutions are numbered along the chain they refer to. Like-named read-outs stand apart in the source and are kept apart here.
B1: PRO2591 (bispecific antibody)
chain 1: AQQLTQSPSSLSASVGDRVTITCQASQNVWNNNYLSWFQQKPGKPPKLLIVTASTLASGVSSRFSGSGSGTDFTLTISSLQPEDFATYYCAGGFSGEIRAFGTGTKVTVLGGGGGSGGGGSGGGGSGGGGSQSQLVESGGGLVQPGGSLRLSCAVSGIDLSRNAMSWVRQAPGKGLEWIGIILTSGSTYYASWAKGRFTISKTSTTLDLQMNSLRAEDTAVYFCVRGIASSSLKSFWGQGTLVTVSSGGGGSGGGGSAFELTQSPSSLSASVGDRVTITCQASESINSRLAWYQQKPGQPPKLLIYDASDLTSGVPSRFSGSGSGTDFTLTISSLQPEDFATYYCQGYGGSSTTTFGCGTKLTVLGGGSGGSDIQMTQSPSSLSASVGDRVTITCQSSQSVFSNNYLAWFQQKPGQSPKRLIYSASTLASGVPSRFSGSGSGTDFTLTISSLQPEDFATYYCLGSYACSSADCYVFGTGTKVTVLG
chain 2: AQQLTQSPSSLSASVGDRVTITCQASQNVWNNNYLSWFQQKPGKPPKLLIVTASTLASGVSSRFSGSGSGTDFTLTISSLQPEDFATYYCAGGFSGEIRAFGTGTKVTVLGGGGGSGGGGSGGGGSGGGGSQSQLVESGGGLVQPGGSLRLSCAVSGIDLSRNAMSWVRQAPGKGLEWIGIILTSGSTYYASWAKGRFTISKTSTTLDLQMNSLRAEDTAVYFCVRGIASSSLKSFWGQGTLVTVSSGGGGSGGGGSEVQLVESGGGLVQPGGSLRLSCAASGFSLSSYDMSWVRQAPGKGLAWIGASYASGPTYYASWAKGRFTISRDNSKNTVYLQMNSLRAEDTATYFCARGGWTGTSHSNIWGQGTLVTVSSGGGSGGGSGGGSGEVQLVESGGGLVQPGGSLRLSCAASGFSLSSYAMNWVRQAPGKCLEWIGHINAGDIAYYATWAKGRFTISRDNSKNTVYLQMNSLRAEDTAVYFCARGAGGFSTGPFKLWGQGTLVTVSS
notes: heterodimeric MATCH4, bivalent for ROR1, monovalent for CD3 and hSA; also called MATCH4 with 55-39-G02-sc03 / 19-04-A10-sc06 / 28-21-D09-sc04 / 55-39-G02-sc03
B2: PRO2589 (bispecific antibody)
chain 1: DVQMTQSPSSLSASVGDRVTITCRASENIYSGLAWYQQKPGKPPKLLIYRASTLASGVSSRFSGSGSGTDFTLTISSLQPEDFATYYCQGGYYSSSSTYIAFGTGTKVTVLGGGGGSGGGGSGGGGSGGGGSQSQVVESGGGLVQPGGSLRLSCAVSGFDLSSYAVSWVRQAPGKGLEWIGIIYPRANTYYASWAKGRFTISKDNSKNTVYLQMNSLRAEDTAVYFCARDRYDSGAYLYTTYFNLWGQGTLVTVSSGGGGSGGGGSAFELTQSPSSLSASVGDRVTITCQASESINSRLAWYQQKPGQPPKLLIYDASDLTSGVPSRFSGSGSGTDFTLTISSLQPEDFATYYCQGYGGSSTTTFGCGTKLTVLGGGSGGSDIQMTQSPSSLSASVGDRVTITCQSSQSVFSNNYLAWFQQKPGQSPKRLIYSASTLASGVPSRFSGSGSGTDFTLTISSLQPEDFATYYCLGSYACSSADCYVFGTGTKVTVLG
chain 2: DVQMTQSPSSLSASVGDRVTITCRASENIYSGLAWYQQKPGKPPKLLIYRASTLASGVSSRFSGSGSGTDFTLTISSLQPEDFATYYCQGGYYSSSSTYIAFGTGTKVTVLGGGGGSGGGGSGGGGSGGGGSQSQVVESGGGLVQPGGSLRLSCAVSGFDLSSYAVSWVRQAPGKGLEWIGIIYPRANTYYASWAKGRFTISKDNSKNTVYLQMNSLRAEDTAVYFCARDRYDSGAYLYTTYFNLWGQGTLVTVSSGGGGSGGGGSEVQLVESGGGLVQPGGSLRLSCAASGFSLSSYDMSWVRQAPGKGLAWIGASYASGPTYYASWAKGRFTISRDNSKNTVYLQMNSLRAEDTATYFCARGGWTGTSHSNIWGQGTLVTVSSGGGSGGGSGGGSGEVQLVESGGGLVQPGGSLRLSCAASGFSLSSYAMNWVRQAPGKCLEWIGHINAGDIAYYATWAKGRFTISRDNSKNTVYLQMNSLRAEDTAVYFCARGAGGFSTGPFKLWGQGTLVTVSS
notes: heterodimeric MATCH4, bivalent for ROR1, monovalent for CD3 and hSA; also called MATCH4 with 55-38-D07-sc02 / 19-04-A10-sc06 / 28-21-D09-sc04 / 55-38-D07-sc02
B3: PRO2590 (bispecific antibody)
chain 1: B2 chain 1 with T104C, G176C
chain 2: B2 chain 2 with T104C, G176C
notes: heterodimeric MATCH4, bivalent for ROR1, monovalent for CD3 and hSA; also called MATCH4 with 55-38-D07-sc06 / 19-04-A10-sc06 / 28-21-D09-sc04 / 55-38-D07-sc06

Tests used:
[1] = biological target: T1, recombinant human CD3 epsilon extra-cellular domain protein (His-Tag, SinoBiological) (human, UniProt P07766 23-126); test: SPR; hCD3ε immobilized, two-state fit (kd1)
T1 construct: extracellular domain; Bought; also called hCD3ε; human CD3ε; not shown: His tag

[2] = biological target: T2, human ROR1 expressed on cells (human, UniProt Q01973 30-937); test: cell-based or functional assay
[3] = biological target: T3, human ROR1 (Peprotech 160-054) (human, UniProt Q01973 30-406); test: SPR; MATCH4 captured, hROR1 analyte (Affinity)
T3 construct: Bought, used as analyte; also called hROR1; recombinant human ROR1 protein
Experimental: Binding affinity without avidity was determined by using a proprietary anti-framework rabbit IgG (rlgG21-57-20-B11) immobilized to a carboxymethylated dextran surface (CM5 sensorchip; Biacore, Cytiva) to capture the MATCH4 molecules on the surface. A titration series of human ROR1 (Peprotech 160-054) molecule was injected as analyte. After each capture-analyte injection cycle, every flow channel on the sensor chip was regenerated (3 M MgCl₂), and a MATCH4 molecule was captured again followed by a different concentration of human ROR1. The binding kinetics to human ROR1 were measured using a multi-cycle kinetic assay, with ten analyte concentrations ranging from 0.088 to 90 nM, 1:2 diluted in running buffer (HEPES buffered saline, 0.05% Tween-20, pH 7.5; Bioconcept).
For both assays, the apparent dissociation (kd) and association (kₐ) rate constants and the apparent dissociation equilibrium constant (KD) were calculated with the Biacore analysis software (Biacore Evaluation software Version 3.2, Cytiva) using a one-to-one Langmuir binding model and quality of the fits was monitored based on Chi2 and U-value, which are measures for the quality of the curve fitting. The binding level was calculated as the maximum stability binding achieved normalized to the theoretical Rmax.

[4] = biological target: T2, human ROR1 expressed on cells; test: cell-based or functional assay; remark: listed apart in the source
[5] = biological target: T1, recombinant human CD3 epsilon …; test: SPR; hCD3ε immobilized, two-state fit (Ka1)
Experimental: (§1) Binding kinetics (including affinity) of the four MATCH4 molecules to recombinant human CD3 epsilon extra-cellular domain protein (hCD3ε; His-Tag, SinoBiological) were determined by SPR analysis on a T200 device (Biacore, Cytiva). Recombinant hCD3ε molecules were covalently immobilized to a carboxymethylated dextran surface (CM5 sensorchip; Biacore, Cytiva) and a titration series of each MATCH4 molecule was injected as analyte. After each analyte injection-cycle, every flow channel on the sensor chip was regenerated (Glycine, pH 2.0 and 3 M MgCl₂), and a new concentration of MATCH4 molecule was injected. […] The apparent dissociation (kd1) and association (kₐ₁) rate constants, the second reaction constants (kₐ₂ and kd2) and the apparent dissociation equilibrium constant (KD) were calculated with the Biacore analysis software (Biacore Evaluation software Version 3.2, Cytiva) using a two-state binding model, and the quality of the fits was monitored based on relative Chi2. The binding level was calculated as the maximum stability binding achieved normalized to the theoretical Rmax.

[6] = biological target: T2, human ROR1 expressed on cells; test: cell-based or functional assay; remark: listed apart in the source
[7] = biological target: T2, human ROR1 expressed on cells; test: flow cytometry, MDA-MB-231 cells, 1 mg/ml hSA
Experimental: After incubation at 4° C. for 1 h in presence of 1 mg/ml of human serum albumin (hSA), plates were washed and incubated with specific detection antibodies.
The binding of MATCH4 molecules to plasma membrane-based human ROR1 was assessed by flow cytometry. The calculated EC₅₀, rel.

[8] = biological target: T2, human ROR1 expressed on cells; test: flow cytometry, JIMT-1 cells (ROR1-positive)
[9] = biological target: T1, recombinant human CD3 epsilon …; test: SPR; hCD3ε immobilized, two-state fit
Experimental: as §1

[10] = biological target: T4, recombinant human ROR1 protein (Fc-Tag, Acro Biosystems RO1-H5250) (human, UniProt Q01973 30-406); test: SPR; hROR1-Fc immobilized (Avidity)
T4 construct: Bought; also called hROR1; recombinant human ROR1 ECD; not shown: Fc tag

[11] = biological target: T2, human ROR1 expressed on cells; test: flow cytometry, JIMT-1 cells (ROR1-positive); remark: listed apart in the source
[12] = biological target: T2, human ROR1 expressed on cells; test: flow cytometry, MDA-MB-231 cells, 1 mg/ml hSA; remark: listed apart in the source

Binder | koff [1] [s⁻¹] | Avg. % max. CD8 T cell act. (JIMT-1) [2] [%] | Avg. % max. CD8 T cell act. (MDA-MB-231) [2] [%] | Avg. % max. CD8 T cell act. (SKOV3) [2] [%] | Avg. EC50 (nM) CD8 T cell act. (JIMT-1) [2] [nM] | Avg. EC50 (nM) CD8 T cell act. (MDA-MB-231) [2] [nM] | Avg. EC50 (nM) CD8 T cell act. (SKOV3) [2] [nM] | Kd [3] [nM] | koff [3] [s⁻¹] | kon [3] [M⁻¹ s⁻¹] | Avg. % max. CD4 T cell act. (JIMT-1) [4] [%] | Avg. % max. CD4 T cell act. (MDA-MB-231) [4] [%] | Avg. % max. CD4 T cell act. (SKOV3) [4] [%] | Avg. EC50 (nM) CD4 T cell act. (JIMT-1) [4] [nM] | Avg. EC50 (nM) CD4 T cell act. (MDA-MB-231) [4] [nM] | Avg. EC50 (nM) CD4 T cell act. (SKOV3) [4] [nM] | kon [5] [M⁻¹ s⁻¹] | Avg. % max. lysis (JIMT-1) [6] [%] | Avg. % max. lysis (MDA-MB-231) [6] [%] | Avg. % max. lysis (SKOV3) [6] [%] | other results
B1 | 0.00423 | 20.3 | 67.5 | 62.7 | 4.6 | 0.01 | 0.68 | 3.2 | 0.00034 | 110000 | 30.5 | 80.3 | 78.7 | 3.9 | 0.005 | 0.38 | 420000 | 34.5 | 47.2 | 58.7 | Avg. EC50 (nM) CD8 T cell act. (MDA-MB-231) [6]: 0.01 nM; Avg. EC50 (nM) CD8 T cell act. (SKOV3) [6]: 0.68 nM; Avg. EC50 (nM) Cytotoxicity (JIMT-1) [6]: 2.4 nM; Avg. EC50 (nM) Cytotoxicity (MDA-MB-231) [6]: 0.011 nM; Avg. EC50 (nM) Cytotoxicity (SKOV3) [6]: 3.5 nM; EC50 [7]: 0.28 nM; Rel. maximum binding (MFIMATCH4/MFIPRO2213) [7]: 2.21; rel. EC50 (EC50, PRO2213/EC50, MATCH4) [7]: 2.45; EC50 (read off the curve) [8]: ~0.5 nM; Ka2 [9]: 0.0027 s⁻¹; Kd [9]: 4.7 nM; Kd2 [9]: 0.0024 s⁻¹; Kd [10]: 0.0227 nM; koff [10]: 4.1e-05 s⁻¹; kon [10]: 1.81e+06 M⁻¹ s⁻¹
B2 | 0.0065 | 23.8 | 68.5 | 66.7 | 0.08 | 0.012 | 0.032 | 1.2 | 0.00011 | 94000 | 36.7 | 79 | 80.3 | 0.09 | 0.006 | 0.02 | 440000 | 41 | 56.9 | 54.6 | EC50 (read off the curve) [11]: 1 to 2 nM; Avg. EC50 (nM) CD8 T cell act. (MDA-MB-231) [6]: 0.012 nM; Avg. EC50 (nM) CD8 T cell act. (SKOV3) [6]: 0.031 nM; Avg. EC50 (nM) Cytotoxicity (JIMT-1) [6]: 0.1 nM; Avg. EC50 (nM) Cytotoxicity (MDA-MB-231) [6]: 0.015 nM; Avg. EC50 (nM) Cytotoxicity (SKOV3) [6]: 0.043 nM; EC50 [7]: 1.55 nM; Rel. maximum binding (MFIMATCH4/MFIPRO2213) [7]: 2.67; rel. EC50 (EC50, PRO2213/EC50, MATCH4) [7]: 0.45; Ka2 [9]: 0.0063 s⁻¹; Kd [9]: 5.9 nM; Kd2 [9]: 0.0042 s⁻¹; fold better rel. EC50 than scMATCH3 PRO2507 [12]: ~10 fold; Kd [10]: 0.093 nM; koff [10]: 7.02e-05 s⁻¹; kon [10]: 755000 M⁻¹ s⁻¹
B3 | 0.0058 | 22.5 | 68.8 | 63.7 | 0.09 | 0.013 | 0.034 | 2.9 | 0.00017 | 59000 | 35.3 | 79.3 | 78.3 | 0.11 | 0.007 | 0.02 | 450000 | 38.6 | 52.2 | 51.8 | EC50 (read off the curve) [11]: 1 to 2 nM; Avg. EC50 (nM) CD8 T cell act. (MDA-MB-231) [6]: 0.013 nM; Avg. EC50 (nM) CD8 T cell act. (SKOV3) [6]: 0.034 nM; Avg. EC50 (nM) Cytotoxicity (JIMT-1) [6]: 0.13 nM; Avg. EC50 (nM) Cytotoxicity (MDA-MB-231) [6]: 0.016 nM; Avg. EC50 (nM) Cytotoxicity (SKOV3) [6]: 0.049 nM; EC50 [7]: 1.23 nM; Rel. maximum binding (MFIMATCH4/MFIPRO2213) [7]: 2.76; rel. EC50 (EC50, PRO2213/EC50, MATCH4) [7]: 0.56; Ka2 [9]: 0.0055 s⁻¹; Kd [9]: 5.7 nM; Kd2 [9]: 0.0043 s⁻¹; Kd [10]: 0.136 nM; koff [10]: 6.15e-05 s⁻¹; kon [10]: 453000 M⁻¹ s⁻¹
